Laboratory results: patent US20260132182A1 (published 2026)
Starred links: 1 amine or outer side, 2 acyl side, 3 side chain; linkers in the order of their positions; H or OH if unused. Non-standard residues stand in square brackets, D forms with d. Groups on a side chain read outwards from the residue. *: point of attachment. Hexadecanoyl(16-SO3H) = O=C(CCCCCCCCCCCCCCCS(=O)(=O)O)*; C20 diacid = O=C(O)CCCCCCCCCCCCCCCCCCC(=O)*; C18 diacid = O=C(O)CCCCCCCCCCCCCCCCC(=O)*; C16 diacid = O=C(O)CCCCCCCCCCCCCCC(=O)*; γGlu = O=C(O)[C@H](CCC(=O)[*:2])N[*:1]; εLys = N[C@@H](CCCCN[*:1])C(=O)[*:2]; AEEA = NCCOCCOCC(=O)O; Aib = CC(C)(N)C(=O)O; Ahx = NCCCCCC(=O)O

T1: human amylin-3 (a) receptor (human, UniProt P30988 25-474; O60896 24-148)
T1 sequence (looked up) 1: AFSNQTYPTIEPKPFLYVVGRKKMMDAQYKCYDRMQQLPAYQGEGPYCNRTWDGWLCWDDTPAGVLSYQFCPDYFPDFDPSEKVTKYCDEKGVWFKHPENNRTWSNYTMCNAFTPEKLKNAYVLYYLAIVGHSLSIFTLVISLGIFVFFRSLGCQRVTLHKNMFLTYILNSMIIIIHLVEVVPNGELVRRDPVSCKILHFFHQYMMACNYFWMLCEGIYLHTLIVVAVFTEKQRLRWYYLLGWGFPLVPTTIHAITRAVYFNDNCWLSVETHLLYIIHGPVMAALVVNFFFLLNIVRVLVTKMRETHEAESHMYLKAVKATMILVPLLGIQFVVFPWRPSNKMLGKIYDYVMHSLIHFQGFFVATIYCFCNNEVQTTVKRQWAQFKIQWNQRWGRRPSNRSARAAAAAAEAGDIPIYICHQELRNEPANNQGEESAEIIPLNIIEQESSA
T1 sequence (looked up) 2: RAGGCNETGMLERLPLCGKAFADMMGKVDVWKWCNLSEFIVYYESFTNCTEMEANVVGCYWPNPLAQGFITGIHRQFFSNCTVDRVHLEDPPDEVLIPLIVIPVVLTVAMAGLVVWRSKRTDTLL


Key:
human GLP-1 receptor = human GLP-1 receptor (human, UniProt P43220 24-463); assay: cell-based or functional assay
[1] = molecular target: T1, human amylin-3 (a) receptor; assay: cell-based or functional assay

Binder | Human GLP-1R potency [EC50 (pM)] (human GLP-1 receptor) | Human AmyR3 potency [EC50 (pM)] [1]
Compound 0659 (peptide) peptide: H[Aib]EGTFTSDVSSYLEEQAAREFIAWLVRGRK([Ahx-Ahx-γGlu-C20 diacid])GGGGEASELSTAALGRLSAELHELATLPRTETGSGSP-NH2 | 4.7 pM | 11.5 pM
Compound 0662 (peptide) peptide: H[Aib]EGTFTSDVSSYLEEQAAREFIAWLVRGRK([AEEA-AEEA-AEEA-AEEA-γGlu-C18 diacid])GGGGEASELSTAALGRLSAELHELATLPRTETGSGSP-NH2 | 3 pM | 14.6 pM
Compound 0089 (peptide) peptide: H[Aib]EGTFTSDVSSYLEEQAARK([AEEA-AEEA-γGlu-C18 diacid])FIEWLVRGK([AEEA-AEEA-γGlu-C18 diacid])GEGGEASELSTAALGRLSAELHELATLPRTETGSGSP-NH2 | 5.7 pM | 65.5 pM
Compound 0083 (peptide) peptide: H[Aib]EGTFTSDVSSYLEGQAAREFIAWLVRGRK([AEEA-AEEA-γGlu-C18 diacid])GQEPGQAPEASELSTAALGRLSAELHELATLPRTETGSGSP-NH2 | 5.4 pM | 46.2 pM
Compound 0640 (peptide) peptide: H[Aib]EGTFTSDVSK([AEEA-AEEA-γGlu-C18 diacid])YLEEQAAREFIAWLVRGRGGGGGEASELSTAALGRLSAELHELATLPRTETGSGSP-NH2 | 2.3 pM | 6 pM
Compound 0076 (peptide) peptide: H[Aib]EGTFTSDVSSYLEEQAARK([AEEA-AEEA-γGlu-C16 diacid])FIAWLVRGK([AEEA-AEEA-γGlu-C16 diacid])GGGEASELSTAALGRLSAELHELATLPRTETGSGSP-NH2 | 1.7 pM | 46.4 pM
Compound 0084 (peptide) peptide: H[Aib]EGTFTSDVSSYLEGQAAREFIAWLVRGRGQEPK([AEEA-AEEA-γGlu-C18 diacid])GQAPEASELSTAALGRLSAELHELATLPRTETGSGSP-NH2 | 2.5 pM | 14 pM
Compound 0074 (peptide) peptide: H[Aib]EGTFTSDVSSYLEEQAARK([AEEA-AEEA-γGlu-C16 diacid])FIAWLVRGRGGK([AEEA-AEEA-γGlu-C16 diacid])EASELSTAALGRLSAELHELATLPRTETGSGSP-NH2 | 0.8 pM | 60.9 pM
Compound 0657 (peptide) peptide: H[Aib]EGTFTSDVSSYLEEQAAREFIAWLVRGRK([εLys-εLys-γGlu-C20 diacid])GGGGEASELSTAALGRLSAELHELATLPRTETGSGSP-NH2 | 9.9 pM | 10.4 pM
Compound 0660 (peptide) peptide: H[Aib]EGTFTSDVSSYLEEQAAREFIAWLVRGRK([AEEA-γGlu-C18 diacid])GGGGEASELSTAALGRLSAELHELATLPRTETGSGSP-NH2 | 3.9 pM | 12.7 pM
Compound 0090 (peptide) peptide: HGEGTFTSDVSSYLEEQAARK([AEEA-AEEA-γGlu-C18 diacid])FIEWLVRGK([AEEA-AEEA-γGlu-C18 diacid])GEGGEASELSTAALGRLSAELHELATLPRTETGSGSP-NH2 | 32.6 pM | 70.9 pM
Compound 0648 (peptide) peptide: HWEGTFTSDVSSYLEEQAAREFIAWLVRGRK([AEEA-AEEA-γGlu-C18 diacid])GGGGEASELSTAALGRLSAELHELATLPRTETGSGSP-NH2 | 17 pM | 9.2 pM
Compound 0093 (peptide) peptide: H[Aib]EGTFTSDVSSYLEGQAAK([AEEA-AEEA-γGlu-C18 diacid])EFIAWLVRGRGGGGGGGGGGGGGGGGGEASELSTAALGRLSAELHELATLPRTETGSGSP-NH2 | 7.5 pM | 8.6 pM
Compound 0087 (peptide) peptide: HGEGTFTSDVSSYLEEQAARK([AEEA-AEEA-γGlu-C16 diacid])FIEWLVRGK([AEEA-AEEA-γGlu-C16 diacid])GEGGEASELSTAALGRLSAELHELATLPRTETGSGSP-NH2 | 23.8 pM | 97.9 pM
Compound 0077 (peptide) peptide: H[Aib]EGTFTSDVSSYLEEQAARK([AEEA-AEEA-γGlu-C16 diacid])FIAWLVK([AEEA-AEEA-γGlu-C16 diacid])GRGGGEASELSTAALGRLSAELHELATLPRTETGSGSP-NH2 | 2.1 pM | 25.7 pM
Compound 0658 (peptide) peptide: H[Aib]EGTFTSDVSSYLEEQAAREFIAWLVRGRK([Ahx-Ahx-γGlu-C18 diacid])GGGGEASELSTAALGRLSAELHELATLPRTETGSGSP-NH2 | 3.1 pM | 11 pM
Compound 0655 (peptide) peptide: H[Aib]EGTFTSDVSSYLEEQAAREFIAWLVRGRK([AEEA-AEEA-γGlu-17‑(1H-tetrazol-5-yl)heptadecanoyl])GGGGEASELSTAALGRLSAELHELATLPRTETGSGSP-NH2 | 3 pM | 11.4 pM
Compound 0085 (peptide) peptide: H[Aib]EGTFTSDVSSYLEGQAAREFIAWLVRGRGQEPGQAPK([AEEA-AEEA-γGlu-C18 diacid])EASELSTAALGRLSAELHELATLPRTETGSGSP-NH2 | 2.2 pM | 55.8 pM
Compound 0010 (peptide) peptide: H[Aib]EGTFTSDVSSYLEGQAAREFIAWLVRGRGEGEGEK([AEEA-AEEA-γGlu-C18 diacid])EASELSTAALGRLSAELHELATLPRTETGSGSP-NH2 | 5.4 pM | 37 pM
Compound 0656 (peptide) peptide: H[Aib]EGTFTSDVSSYLEEQAAREFIAWLVRGRK([εLys-εLys-γGlu-C18 diacid])GGGGEASELSTAALGRLSAELHELATLPRTETGSGSP-NH2 | 4.1 pM | 13.3 pM
Compound 0661 (peptide) peptide: H[Aib]EGTFTSDVSSYLEEQAAREFIAWLVRGRK([AEEA-AEEA-AEEA-γGlu-C18 diacid])GGGGEASELSTAALGRLSAELHELATLPRTETGSGSP-NH2 | 2.8 pM | 14.4 pM
Compound 0092 (peptide) peptide: H[Aib]EGTFTSDVSSYLEGQAAK([AEEA-AEEA-γGlu-C18 diacid])EFIAWLVRGRGGGGGGGGGGGGGEASELSTAALGRLSAELHELATLPRTETGSGSP-NH2 | 18.5 pM | 10.9 pM
Compound 0654 (peptide) peptide: H[Aib]EGTFTSDVSSYLEEQAAREFIAWLVRGRK([AEEA-AEEA-γGlu-Hexadecanoyl(16-SO3H)])GGGGEASELSTAALGRLSAELHELATLPRTETGSGSP-NH2 | 2.9 pM | 11.3 pM
Compound 0075 (peptide) peptide: H[Aib]EGTFTSDVSSYLEGQAAK([AEEA-AEEA-γGlu-C16 diacid])EFIAWLVRGK([AEEA-AEEA-γGlu-C16 diacid])GGGEASELSTAALGRLSAELHELATLPRTETGSGSP-NH2 | 84.5 pM | 43.9 pM
Compound 0086 (peptide) peptide: H[Aib]EGTFTSDVSSYLEEQAARK([AEEA-AEEA-γGlu-C16 diacid])FIEWLVRGK([AEEA-AEEA-γGlu-C16 diacid])GEGGEASELSTAALGRLSAELHELATLPRTETGSGSP-NH2 | 3.9 pM | 78.3 pM
Compound 0663 (peptide) peptide: H[Aib]EGTFTSDVSSYLEEQAAREFIAWLVRGRK([AEEA-AEEA-AEEA-AEEA-γGlu-C20 diacid])GGGGEASELSTAALGRLSAELHELATLPRTETGSGSP-NH2 | 3.2 pM | 12.6 pM
Compound 0639 (peptide) peptide: H[Aib]EGTFTSDVSSYLEEQAARK([AEEA-AEEA-γGlu-C18 diacid])FIAWLVRGRGGGGGEASELSTAALGRLSAELHELATLPRTETGSGSP-NH2 | 1.5 pM | 4.6 pM
